This note sets out measurements from patent EP1876240B1.

Where a chain is given by its changes, count along the chain named.

In experiment [1] the target is human GPVI extracellular region-human Fc fusion protein (hGPVI-hFc) (human). As to the kind of experiment: SPR (BIACORE3000) as in Example 5. For orientation: In SPR one partner is held on a chip, and binding of the other changes the refractive index at the surface.
For experiment [2] the target is unchanged. As to the kind of experiment: ELISA on immobilised hGPVI-hFc; ++ absorbance 1.0 to 2.0.
Experiment [3] has the same target. As to the kind of experiment: ELISA on immobilised hGPVI-hFc; + absorbance 0.5 to 1.0.
Experiment [4] has the same target. In words: ELISA on immobilised hGPVI-hFc; +++ absorbance more than 2.0. (In general: ELISA stands for enzyme-linked immunosorbent assay.)
Experiment [5] shares this target. As to the kind of experiment: SPR (BIACORE 3000), hGPVI-hFc on CM5 chip, 0-800 nM, 1:1 binding fit.
The target in experiment [6] is rat GPVI-human Fc (rGPVI-hFc) (rat; mouse). In words: ELISA on immobilized antigen; control.

Chain of human GPVI extracellular region-human Fc fusion protein (hGPVI-hFc) (human) (chain, as listed by the source limits assumed): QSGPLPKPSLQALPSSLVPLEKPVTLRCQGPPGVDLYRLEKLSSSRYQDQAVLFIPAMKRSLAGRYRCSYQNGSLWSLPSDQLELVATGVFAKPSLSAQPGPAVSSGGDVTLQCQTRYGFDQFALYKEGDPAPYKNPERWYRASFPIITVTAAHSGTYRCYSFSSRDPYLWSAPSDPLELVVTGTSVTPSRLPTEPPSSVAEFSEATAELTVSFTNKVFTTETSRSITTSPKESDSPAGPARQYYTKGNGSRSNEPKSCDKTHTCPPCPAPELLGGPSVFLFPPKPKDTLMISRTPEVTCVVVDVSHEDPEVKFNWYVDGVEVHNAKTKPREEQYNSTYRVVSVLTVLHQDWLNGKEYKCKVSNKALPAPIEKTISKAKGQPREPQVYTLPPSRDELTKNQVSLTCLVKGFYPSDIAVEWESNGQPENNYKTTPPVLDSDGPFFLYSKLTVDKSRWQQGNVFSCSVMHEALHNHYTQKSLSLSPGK

B1: F1245-6-2 (antibody, V domains shown)
VH: QVQLQQPGAELVKPGASVKLSCKASGYTFTSYWMHWVKQRPGQGLEWIGMIHPNSGSTNYNEKFKSKATLTVDKSSSTAYMQLSSLTSEDSAVYYCARGGVTPVAYWGQGTLVTVSA
VL: SIVMTQTPKFLLVSAGDRVTITCKASQSVSNDVAWYQQKPGQSPKLLIYYASNRYTGVPYRFTGSGYGTDFTFTISTVQAEDLAVYFCQQDYSSPWTFGGGTKLEIK
For the molecule B1, the KD (Relative value) against F1232-37-2 (relative to KD of F1232-37-2) in experiment [1] was determined as 0.122. In experiment [2], the absorbance is 1 to 2 od.

B2: F1251-1-1 (antibody, V domains shown)
VH: QVNLLQSGAALVKPGASVKLSCKASGYTFTDYYIHWVKQSHGKSLEWIGYINPNSGYTNYNEKFKSKATLTVDKSTNTAYMELSRLTSEDSATYYCTRCNSGYGDWFAYWGQGTLLTVSS
VL: DIQMTQSPPVLSASVGDRVTLSCKASQNINKNLDWYQQKHGEAPKLLIYYTNNLQTDIPSRFSGSGSGTDYTLTISSLQPEDVATFYCYQYNSGPGTFGAGTKLELKR
In experiment [1], B2 displayed a KD (Relative value) against F1232-37-2 (relative to KD of F1232-37-2) of 7.9. Further, in experiment [3], the absorbance was 0.5 to 1 od.

B3: F1257-3-1 (antibody, V domains shown)
VH: QVTLKESGPGMLQPSKTLSLTCSFSGFSLSTSGMVVSWIRQPSGKSLEWLAAIDWDGDKYYNPSLKSRLTVSKDTSNTQVFLKISSVDIADTATYYCARTPYYGYKEAYYFDYWGQGVKVTVSS
VL: DIQMTQSPASLSASLEEIVTITCKASRAIDDYLSWYQQKPGKSPQLLIYDATSLADGVPSRFSGSRSGTQYSLKISRPQVDDSGIYYCLQSYSTPWTFGGGTKLDLKR
B3 gave an absorbance in experiment [4] of over 2 od. This molecule gave a KD (Relative value) against F1232-37-2 (relative to KD of F1232-37-2) in experiment [1] of 0.00298.

B4: F1232-37-2 Fab (Fab, V domains shown)
VH: VQLQQSGPELVRPGESVKISCKGSGYTFTDYAIHWVKLSHAKSLEWIGVISIYYDDTNYNQKFKGKATMTVDKSSSTAYLELARLTSEDSAIYYCARRRDSSGPYAMDYWGQGTSVTVSS
VL: DIVLTQSPASLAVSLGQRATISCRASESVDSYGNSFMHWYQQKPGQPPKLLIYRASNLESGIPARFSGSGSRTDFTLTINPVEADDVATYYCQQSNEDPYTFGGGTKLEIKR
Take B4: in experiment [5], the dissociation constant relative to whole antibody (defined as one) (relative to KD of whole F1232-37-2) was 0.6.

B5: F1249-30-1 (antibody, V domains shown)
VH: QVQLQQSGAELVRPGVSVKISCKGSGYTFTDYAMHWVKQSHAKSLEWIGVISTYYGDTSYNQKFKGKAAMTVDKSSSTAYMELARLTSDDSAIYYCARAEDYDPWFAYWGQGTLVTVSA
VL: B4 VL with N96D, Y100L, G104A, I110L
For the molecule B5, the absorbance in experiment [4] was over 2 od. Moreover, the KD (Relative value) against F1232-37-2 (relative to KD of F1232-37-2) in experiment [1] was 0.347.

B6: F1249-20-1 (antibody, V domains shown)
VH: B5 VH with A69T, D89E
VL: B4 VL with H38Y, N96D, Y100L, G104A, I110L
On to B6, for which the absorbance in experiment [4] was over 2 od. This molecule also displayed a KD (Relative value) against F1232-37-2 (relative to KD of F1232-37-2) in experiment [1] of 0.00205.

B7: F1232-37-2 (antibody, V domains shown)
VH: B4 VH
VL: B4 VL
With B7, the absorbance (ELISA) in experiment [6] is 0.137.

B8: F1249-24-1 (antibody, V domains shown)
VH: B5 VH with A69T, D89E
VL: B4 VL with N96D, Y100L, G104A, I110L
Turning to B8, the absorbance in experiment [4] was over 2 od. This molecule showed a KD (Relative value) against F1232-37-2 (relative to KD of F1232-37-2) in experiment [1] of 0.00821.

B9: F1246-1-1 (antibody, V domains shown)
VH: EVQLVESGGDLVKPGGSLKLSCAASGFTFSSYGMSWVRQTPDKRLEWVATISNGGTYTYYPDSVKGRFTISRDNAKNTLYLQMSSLKSDDTAMYYCGRLRDYYAMDYWGQGTSVTVSS
VL: B4 VL with Y100W
In experiment [1], B9 returned a KD (Relative value) against F1232-37-2 (relative to KD of F1232-37-2) of 0.884. Also, the absorbance in experiment [2] was in the range of 1 to 2 od.

B10: F1245-7-1 (antibody, V domains shown)
VH: QVQLQQPGAELVKPGASVKLSCKASGYTFTSYWMHWVKQRPGQGLEWIGMIHPNSGSTNYNEKFKSKATLTVDKSSSTAYMQLSSLTSEDSAVYYCASPVTAVVEYYFDYWGQGTTLTVSS
VL: SIVMTQTPKFLLVSAGDRVTITCKASQSVSNDVAWYQQKPGQSPKLLIYYASNRYTGVPDRFTGSGYGTDFTFTISTVQAEDLAVYFCQQDYSSLTFGSGTKLEIKR
As for B10, in experiment [1], the KD (Relative value) against F1232-37-2 (relative to KD of F1232-37-2) turned out to be 0.00293. The absorbance in experiment [2] was 1 to 2 od.

B11: F1249-18-2 (antibody, V domains shown)
VH: QVQLQQPGAELVKPGASVKLSCKASGYTFTSYWMHWLKQRPGQGLEWIGMIHPNSDITNYNEKFKNKATLTVDKSSSTAYMQLSSLTSEDSAVYYCARSGDYYAMDYWGQGTSVTVSS
VL: SIVMTQTPKFLLVSAGDRVTITCKASQSVSNDVAWYQQKPGQSPKLLIYYASNRYTGVPDRFTGSGYGTDFTFTISTVQAEDLAVYFCQQDYSSPPTFGGGTKLEIKR
Regarding B11, in experiment [4], the absorbance was over 2 od. The KD (Relative value) against F1232-37-2 (relative to KD of F1232-37-2) in experiment [1] is 0.00103.

B12: F1245-4-1 (antibody, V domains shown)
VH: QVQLQQPGAELVKPGASVKLSCKASGCTFTSYWMHWVKQRPGQGLEWIGMIHPNSDNTNYNEKFKSKATLTVDKSSSTAYMHLSSLTSEDSAVYYCATHYYDYVDYWGQGTTLTVSS
VL: B11 VL with S1N, P96W
With B12, the absorbance in experiment [4] was over 2 od. Moreover, the KD (Relative value) against F1232-37-2 (relative to KD of F1232-37-2) in experiment [1] was determined as 0.00427.

B13: F1245-5-1 (antibody, V domains shown)
VH: B1 VH with T30I, N59H
VL: B11 VL with P96W
In turn, B13 had a KD (Relative value) against F1232-37-2 (relative to KD of F1232-37-2) in experiment [1] of 1.43. In experiment [2], this molecule gave an absorbance of 1 to 2 od.

B14: F1249-5-1 (antibody, V domains shown)
VH: B11 VH with D73A, S99L
VL: B11 VL with A34T
In experiment [1], B14 returned a KD (Relative value) against F1232-37-2 (relative to KD of F1232-37-2) of 0.00285. Moreover, in experiment [2], the absorbance lay in the range of 1 to 2 od.
